Measured values as given in US20230416402A1 (DRAGONFLY THERAPEUTICS, published 2023).

Target: HER2 (human, UniProt P04626 23-1255)
Assay: cell-based or functional assay

B1: A49-F3′-TriNKET-Trastuzumab (bispecific antibody, human IgG1)
heavy: EVQLVESGGGLVKPGGSLRLSCAASGFTFSSYSMNWVRQAPGKGLEWVSSISSSSSYIYYADSVKGRFTISRDNAKNSLYLQMNSLRAEDTAVYYCARGAPMGAAAGWFDPWGQGTLVTVSSASTKGPSVFPLAPSSKSTSGGTAALGCLVKDYFPEPVTVSWNSGALTSGVHTFPAVLQSSGLYSLSSVVTVPSSSLGTQTYICNVNHKPSNTKVDKKVEPKSCDKTHTCPPCPAPELLGGPSVFLFPPKPKDTLMISRTPEVTCVVVDVSHEDPEVKFNWYVDGVEVHNAKTKPREEQYNSTYRVVSVLTVLHQDWLNGKEYKCKVSNKALPAPIEKTISKAKGQPREPQVCTLPPSRDELTENQVSLTCLVKGFYPSDIAVEWESNGQPENNYKTTPPVLDSDGSFFLYSWLTVDKSRWQQGNVFSCSVMHEALHNHYTQKSLSLSPG
chain: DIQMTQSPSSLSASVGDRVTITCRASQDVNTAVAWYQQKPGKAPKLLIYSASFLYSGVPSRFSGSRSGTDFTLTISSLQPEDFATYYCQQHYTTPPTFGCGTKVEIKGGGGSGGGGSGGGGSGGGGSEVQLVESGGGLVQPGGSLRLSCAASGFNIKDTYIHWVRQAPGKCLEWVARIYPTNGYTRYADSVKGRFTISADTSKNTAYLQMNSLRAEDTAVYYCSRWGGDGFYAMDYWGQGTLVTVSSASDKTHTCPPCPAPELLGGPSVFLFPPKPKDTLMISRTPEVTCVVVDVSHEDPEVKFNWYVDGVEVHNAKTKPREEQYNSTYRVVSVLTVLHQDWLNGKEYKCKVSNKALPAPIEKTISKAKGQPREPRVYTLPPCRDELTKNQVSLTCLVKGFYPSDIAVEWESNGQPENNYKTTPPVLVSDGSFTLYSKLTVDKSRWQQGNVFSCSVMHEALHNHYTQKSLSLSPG
light: DIQMTQSPSSVSASVGDRVTITCRASQGISSWLAWYQQKPGKAPKLLIYAASSLQSGVPSRFSGSGSGTDFTLTISSLQPEDFATYYCQQGVSFPRTFGGGTKVEIKRTVAAPSPPSDEQLKSGTASVVCLLNNFYPREAKVQWKVDNALQSGNSQESVTEQDSKDSTYSLSSTLTLSKADYEKHKVYACEVTHQGLSSPVTKSFNRGEC
EC50 in KHYG-1-CD16V cell killing of Hs578T cells (DELFIA cytotoxicity assay): 0.376 nM | EC50 in KHYG-1-CD16V cell-mediated cytolysis of BT-20 cells (DELFIA cytotoxicity assay): 1.16 nM | EC50 in NK cell-mediated killing of MCF-7 cells (DELFIA cytotoxicity assay): 0.878 nM | EC50 in NK cell-mediated lysis of ZR75-1 cells (DELFIA cytotoxicity assay): 0.043 nM | EC50 in enhancing NK cell-mediated cytolysis of SKBR-3 cells (DELFIA cytotoxicity assay, 3 healthy donors): 0.008 nM | EC50 in inducing NK cell-mediated lysis of 786-0 cells (DELFIA cytotoxicity assay): 0.638 nM | EC50 in triggering NK cell-mediated killing of H661 cells (DELFIA cytotoxicity assay): 0.054 nM | fold higher potency than trastuzumab in triggering NK cell-mediated killing of SKBR-3 cells: 2.5 fold
